The values that follow come from patent publication US8318172B2, “Breaking immunological tolerance with a genetically encoded unnatural amino acid” (The Scripps Research Institute, priority 2008, dated 2012).

In experiment [1] the target is T1, WT mTNFα (Mus musculus, UniProt P06804).
T1 construct: ELISAs were measured against WT mTNFα aa 1-156; His6 tag followed by factor Xa cleavage site (N, cleaved yes); made in house; host or cells: E. coli BL21(DE3)
T1 sequence (P06804 80-235): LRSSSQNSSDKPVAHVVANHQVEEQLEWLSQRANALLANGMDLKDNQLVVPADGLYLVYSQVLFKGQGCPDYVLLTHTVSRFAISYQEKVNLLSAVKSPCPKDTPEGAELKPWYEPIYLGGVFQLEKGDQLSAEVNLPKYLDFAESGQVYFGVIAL
Type of experiment: in vivo, mice. As for the experimental part:
(§1) The plates were washed with PBST between incubations.
(§2) 30 μl of 0.5 μg/ml protein was used to coat the wells of Maxisorp 384-well plates (Nunc, Rochester, N.Y.) overnight at 4° C. After washing with PBS+0.05% Tween 20 (PBST), the coated plates were blocked with 80 μl of 1% BSA in PBS, and washed again with PBST. The plates were sequentially incubated with 20 μl of primary antibody or serum diluted in 1% BSA in PBS, 20 μl of HRP-conjugated goat anti-mouse IgG or anti-mouse IgM (Jackson ImmunoResearch Laboratories, West Grove, Pa.), and 20 μl of TMB substrate (KPL, Gaithersburg, Md.), and read at an absorbance of 650 nm. Between incubations, the plates were washed at least six times with PBST.

Experiment [2] relates to CD4+ T cells from immunized mice. Description: T cell proliferation assay. Type of experiment: cell-based. The following applies: Bcl-2 mice, stimulated in vitro with pNO2Phe^86 mTNFα.
Description: For mice immunized without adjuvant, the RIMMS protocol involved 8 injections (5 μg protein/injection) over a period of 17 days. For mice immunized with adjuvant, CFA was used for the first injection and IFA for the remaining 7 injections. […] To perform the T-cell proliferation assays, CD4^+ T cells from immunized mice were isolated from lymph nodes by magnetic depletion with MACS beads (Miltenyi Biotec). T cells were then placed into culture with irradiated splenocytes from naïve Bcl-2 mice and increasing amounts of antigen. The cultures were incubated for 48 h and then pulsed with [^3H]thymidine overnight. The culture plates were harvested onto filter mats and radioactivity was quantified with a TopCount scintillation counter (PerkinElmer).
Isolation of CD4^+ T cells from the lymph nodes of immunized C57BL/6 mice was carried out by magnetic depletion with MACS beads (Miltenyi Biotec, Auburn, Calif.). T cells were then placed into culture with irradiated splenocytes from naïve C57BL/6 mice and increasing amounts of antigen. Following incubation for 48 h, the cultures were incubated with ^3H-thymidine overnight. After harvesting the culture plates onto filter mats, radioactivity was quantified with a TopCount scintillation counter (PerkinElmer, Boston, Mass.).
The test system of experiment [3] is C57BL/6 mice, lipopolysaccharide (LPS) challenge. Description: LPS challenge in TNFα-dependent severe endotoxemia mouse model. Type of experiment: in vivo.
Experiment [4] relates to WT mTNFα. Type of experiment: in vivo, mice. As to conditions: C57BL/6 mice, 8 injections of 5 μg over 17 days, CFA/IFA, serum diluted 1/1000. The procedure:
as §1, §2

In experiment [5] the test system is NFκB pathway in HEK293 cells stably expressing NFκB-Luc. The following applies: NF-κB-luciferase activity analysis of mTNFα variants.
Description: The biological activities of the proteins were assayed by measuring the mTNFα-induced activation of NFκB pathway in a NFκB-luciferase reporter cell line. […] The stable cells were dissociated with trypsin, resuspended in DMEM containing 10% FBS at 5×10^5 cells/ml, and plated at 20 μl/well in 384-well white plate (Greiner, Longwood, Fla.). After 2 hours incubation at 5% CO2 in a 37° C. tissue culture incubator, 20 μl of TNFα was added to the cells. The cells were continuously incubated for 24 hours. Luciferase activities were measured by addition of 20 μl Bright-Glo (Promega, Madison, Wis.), and the plate was read using a luminescence plate reader.
The activity of pNO2Phe mTNFα mutants was determined by an NFκB-luciferase reporter gene assay using HEK293 cells stably expressing NFκB-luciferase as described previously (Grunewald, J. et al. (2008) “Immunochemical termination of self-tolerance.” Proc Natl Acad Sci USA 105: 11276-11280).

B1: Phe^86 mTNFα: Tyr^86 Phe mutant of mTNFα, control without NO2 group (protein)
chain: LRSSSQNSSDKPVAHVVANHQVEEQLEWLSQRANALLANGMDLKDNQLVVPADGLYLVYSQVLFKGQGCPDYVLLTHTVSRFAISFQEKVNLLSAVKSPCPKDTPEGAELKPWYEPIYLGGVFQLEKGDQLSAEVNLPKYLDFAESGQVYFGVIAL
In the case of B1, in the experiment with WT mTNFα [1] (Bcl2 mice, presence or absence of CFA/IFA), the anti-TNFα titers result was “no significant anti-TNFα titers”. In addition, the “CD4+ T cells specific for pNO2Phe^86 mTNFα elicited by immunization” value in experiment [2] is “not when mice were immunized”.

B2: WT mTNFα: wild-type murine tumor necrosis factor-α expressed in E. coli (protein)
chain: MSTESMIRDVELAEEALPQKMGGFQNSRRCLCLSLFSFLLVAGATTLFCLLNFGVIGPQRDEKFPNGLPLISSMAQTLTLRSSSQNSSDKPVAHVVANHQVEEQLEWLSQRANALLANGMDLKDNQLVVPADGLYLVYSQVLFKGQGCPDYVLLTHTVSRFAISYQEKVNLLSAVKSPCPKDTPEGAELKPWYEPIYLGGVFQLEKGDQLSAEVNLPKYLDFAESGQVYFGVIAL
Take B2: the survival rate in experiment [3] (active immunization, C57BL/6 mice, LPS 8.5 mg/kg i.p.) is recorded as 12.5%; in experiment [3] (passive: pooled serum (100 uL) or purified IgG (4 mg/kg) from immunized Bcl-2 mice, LPS 7.5 mg/kg) it was 16.7-25.0%. Moreover, in the experiment on WT mTNFα [4], the “serum IgG titers against pNO2Phe^86 mTNFα and WT mTNFα” value is “insignificant serum IgG titers”. The “sustaining titers of cross-reactive anti-mTNFα antibodies” value with WT mTNFα [1] (one injection of pNO2Phe^86 mTNFα in CFA, then 7 injections in IFA) is “cannot sustain significant titers”. In addition, the “CD4+ T cells specific for pNO2Phe^86 mTNFα elicited by immunization” value in experiment [2] is recorded as “not when mice were immunized”. In addition, the EC50 in experiment [5] was determined as 0.216 nM.
